Target: T1, recombinant human IFNγ (human, UniProt P01579 24-166)
T1 chain: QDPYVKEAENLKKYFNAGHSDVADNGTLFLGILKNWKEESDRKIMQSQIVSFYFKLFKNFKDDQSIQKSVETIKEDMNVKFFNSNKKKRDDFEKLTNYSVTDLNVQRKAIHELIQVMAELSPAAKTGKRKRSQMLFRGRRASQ
Test: SPR (Biacore)

B1: NI-0501 (antibody, V domains shown)
VH: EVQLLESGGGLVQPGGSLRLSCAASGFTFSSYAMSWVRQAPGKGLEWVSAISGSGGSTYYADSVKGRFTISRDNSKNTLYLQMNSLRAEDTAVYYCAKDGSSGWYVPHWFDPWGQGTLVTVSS
VL: NFMLTQPHSVSESPGKTVTISCTRSSGSIASNYVQWYQQRPGSSPTTVIYEDNQRPSGVPDRFSGSIDSSSNSASLTISGLKTEDEADYYCQSYDGSNRWMFGGGTKLTVL
Kd: 0.732 nM

— US20100158922A1 (published 2010)
